In the supplement of paper PMC7125110:
± gives the standard error. For some assays here: Fewer inactive variants are shown than the library holds.

B1: glmS ribozyme (parent)
chain: AUAAAAGCGCCAGAACUACAGAAAUGUAGUUGACGAGGAGGAGGUUUAUCGAAUUUUCGGCGGAUGCCUCCAAA

What was measured:
Settings in all cases: with glucosamine-6-phosphate
glucosamine-6-phosphate [1] = variants of: B1; experiment: kcat; higher = faster cleavage; RNA array
Method in brief: (§1)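 The measurements used barcoded ribozyme variants on sequenced MiSeq chips, transcribed in situ by E. coli RNA polymerase and tracked at 37 °C with a hybridised Cy3 probe. Glucosamine-6-phosphate, 40 μM to 10 mM in HEPES/KCl/Mg(OAc)2 buffer, was flowed in while tiles were imaged over ~14 h. Baseline-normalised signals, also normalised to non-cleaving reference variants, gave per-tile medians that were fit to one- or two-exponential decays for kobs. kcat and KM resulted from weighted Michaelis–Menten fits across concentrations.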

glucosamine-6-phosphate [2] = variants of: B1; experiment: KM; higher = weaker cofactor use; RNA array
Method in brief: as §1

glucosamine-6-phosphate [3] = variants of: B1; experiment: self-cleavage kobs at 40 uM GlcN6P; higher = faster cleavage; RNA array
Method in brief: as §1

glucosamine-6-phosphate [4] = variants of: B1; experiment: self-cleavage kobs at 160 uM GlcN6P; higher = faster cleavage; RNA array
Method in brief: as §1

glucosamine-6-phosphate [5] = variants of: B1; experiment: self-cleavage kobs at 640 uM GlcN6P; higher = faster cleavage; RNA array
Method in brief: as §1

glucosamine-6-phosphate [6] = variants of: B1; experiment: self-cleavage kobs at 2500 uM GlcN6P; higher = faster cleavage; RNA array
Method in brief: as §1

glucosamine-6-phosphate [7] = variants of: B1; experiment: self-cleavage kobs at 10000 uM GlcN6P; higher = faster cleavage; RNA array
Method in brief: as §1

Variant | kcat (glucosamine-6-phosphate [1]) [s⁻¹] | KM (glucosamine-6-phosphate [2]) [µM] | self-cleavage kobs at 40 uM GlcN6P (glucosamine-6-phosphate [3]) [s⁻¹] | self-cleavage kobs at 160 uM GlcN6P (glucosamine-6-phosphate [4]) [s⁻¹] | self-cleavage kobs at 640 uM GlcN6P (glucosamine-6-phosphate [5]) [s⁻¹] | self-cleavage kobs at 2500 uM GlcN6P (glucosamine-6-phosphate [6]) [s⁻¹] | self-cleavage kobs at 10000 uM GlcN6P (glucosamine-6-phosphate [7]) [s⁻¹]
C16G C71U | 0.00252 ± 0.00053 | 956 ± 300 | 0.000132 ± 1.8e-05 | 0.000323 ± 5.6e-05 | 0.000865 ± 0.00012 | 0.00228 ± 0.00066 | 0.00248 ± 0.00036
U56G G66A | 0.0089 ± 0.0034 |  | 0.00021 ± 3.4e-05 | 0.00049 ± 0.00011 | 0.00136 ± 0.00037 | 0.00405 ± 0.00078 | 0.00875 ± 0.0018
A6G G37U | < 1e-05 |  | < 1e-05 | < 1e-05 |  |  | < 1e-05
A15U U65G | 0.00187 ± 0.00077 |  | 3.19e-05 ± 1.1e-05 | 6.21e-05 ± 1e-05 | 0.00036 ± 4.5e-05 | 0.00056 ± 0.00017 | 0.00139 ± 0.00025
A14C G29A A53U G59A C68U | < 1e-05 |  |  |  |  |  | 
G40U A53U | 0.00278 ± 0.00064 | 1300 ± 390 | 0.000101 ± 8.3e-06 | 0.000254 ± 3.2e-05 | 0.000821 ± 9.1e-05 | 0.00203 ± 0.00093 | 0.00266 ± 0.00031
U31G U45A | 0.0285 ± 0.0073 | 2180 ± 720 | 0.000531 ± 0.00011 | 0.00206 ± 0.0004 | 0.00653 ± 0.0013 | 0.0105 ± 0.0037 | 0.0291 ± 0.0063
G37U U54G | < 1e-05 |  | < 1e-05 | < 1e-05 | < 1e-05 |  | 
C8U C58U C68A | 2.49e-05 ± 7.3e-06 |  |  |  |  | < 1e-05 | 
U56G C70U | 0.00109 ± 0.00036 |  | 0.000308 ± 4.6e-05 | 0.000437 ± 7.8e-05 | 0.000908 ± 0.00022 | 0.000943 ± 0.0003 | 0.00182 ± 0.00036
A6C A53G | 0.000117 ± 1e-05 | 3110 ± 770 |  |  | 3.04e-05 ± 1.3e-05 | 4.95e-05 ± 7.6e-06 | 8.97e-05 ± 7.3e-06
U45A C58U | 0.000219 ± 4.8e-05 | 4210 ± 1900 | < 1e-05 |  |  | 9.07e-05 ± 1.6e-05 | 0.000149 ± 2.4e-05
U31G C34A G60U C67A | < 1e-05 |  |  |  |  |  | 
A12C U54G G66U | 0.00175 ± 0.00085 |  | 5.6e-05 ± 1.7e-05 | 8.77e-05 ± 1.3e-05 | 0.000245 ± 5.3e-05 | 0.000495 ± 0.00014 | 0.00164 ± 0.00028
A42G U57G | 4.9e-05 ± 1.3e-06 | 514 ± 77 | < 1e-05 | < 1e-05 |  | 4.17e-05 ± 1.4e-05 | 4.59e-05 ± 1.4e-05
U57A | 0.000404 ± 1.3e-05 | 3120 ± 170 |  | 2.27e-05 ± 2.2e-06 | 6.91e-05 ± 1.6e-06 | 0.000175 ± 4e-06 | 0.000311 ± 6.3e-06

Variant | kcat (glucosamine-6-phosphate [1]) [s⁻¹] | KM (glucosamine-6-phosphate [2]) [µM] | self-cleavage kobs at 40 uM GlcN6P (glucosamine-6-phosphate [3]) [s⁻¹] | self-cleavage kobs at 160 uM GlcN6P (glucosamine-6-phosphate [4]) [s⁻¹] | self-cleavage kobs at 640 uM GlcN6P (glucosamine-6-phosphate [5]) [s⁻¹] | self-cleavage kobs at 2500 uM GlcN6P (glucosamine-6-phosphate [6]) [s⁻¹] | self-cleavage kobs at 10000 uM GlcN6P (glucosamine-6-phosphate [7]) [s⁻¹]
C16U A52C | 1.88e-05 ± 3.1e-06 |  |  |  |  |  | 
C16U G43U | 4.2e-05 ± 1.9e-07 | 1250 ± 27 |  |  |  | 2.81e-05 ± 1.3e-05 | 3.73e-05 ± 1e-05
C16U G43A | 8.72e-05 ± 3e-05 |  | < 1e-05 |  |  | 2.82e-05 ± 1e-05 | 6.17e-05 ± 1e-05
A48G C58U | 1.71e-05 ± 2.1e-06 |  |  |  |  |  | 
C16G U45A | 0.0107 ± 0.0033 | 2340 ± 1100 | 0.000245 ± 3.1e-05 | 0.00048 ± 0.00013 | 0.00226 ± 0.00044 | 0.00423 ± 0.00082 | 0.0101 ± 0.0013
A52U U54G | 0.000276 ± 3.6e-05 | 3750 ± 860 |  |  | 4.52e-05 ± 9.2e-06 | 0.000107 ± 1e-05 | 0.000207 ± 2.8e-05
U49G C68U | 0.000145 ± 1.9e-05 | 862 ± 360 |  | 5.03e-05 ± 2.2e-05 | 6.17e-05 ± 1.2e-05 | 9.44e-05 ± 1.6e-05 | 0.000144 ± 1.8e-05
G13A A53U C58A | 0.000493 ± 0.00022 |  |  |  | 6.46e-05 ± 1.6e-05 | 0.000366 ± 0.0001 | 0.000332 ± 8.4e-05
C16U U56C | 0.00495 ± 0.00037 | 4050 ± 460 | 4.49e-05 ± 7.9e-06 | 0.00024 ± 8.3e-05 | 0.000693 ± 0.00011 | 0.00199 ± 0.00037 | 0.00349 ± 0.00036
A14C G37A | 0.000437 ± 0.00013 |  |  | 6.1e-05 ± 1.7e-05 | 8.51e-05 ± 1.4e-05 | 0.000201 ± 3e-05 | 0.000388 ± 6.8e-05
A12G C70G | 0.000171 ± 1.5e-05 | 856 ± 240 |  |  | 7.9e-05 ± 1e-05 | 0.000109 ± 1.6e-05 | 0.000166 ± 1.6e-05
U46C C58U | 3.35e-05 ± 5.4e-07 | 1400 ± 110 | < 1e-05 |  |  |  | 2.93e-05 ± 9e-06
A48U G66A | 0.000466 ± 2.8e-05 | 7160 ± 740 |  |  |  | 0.000123 ± 2.3e-05 | 0.00027 ± 4.1e-05
U65C G66A | 0.000598 ± 0.00017 |  |  |  | 0.000112 ± 3.9e-05 | 0.000323 ± 0.00014 | 0.000416 ± 7.9e-05
G38A U45A | < 1e-05 |  |  |  | < 1e-05 |  | 
A33U C67U | 4.33e-05 ± 9.7e-06 |  |  |  | 3.39e-05 ± 1.5e-05 | 2.49e-05 ± 6.9e-06 | 4.16e-05 ± 7.3e-06
